Experimental data as given in patent publication EP4778940A1 (Artivila (ShenZhen) Innovation Center, Ltd., dated 2026).

Experiments:
[1] = target: T1, human HHLA2 on cells (K562-hHHLA2; HCC827) (human, UniProt Q9UM44 23-414); experiment: flow cytometry on HCC827 tumor cells highly expressing human HHLA2
T1 construct: whole, on cells; also called K562 cells overexpressing human HHLA2; HCC827 cell line highly expressing human HHLA2
T1 sequence (looked up): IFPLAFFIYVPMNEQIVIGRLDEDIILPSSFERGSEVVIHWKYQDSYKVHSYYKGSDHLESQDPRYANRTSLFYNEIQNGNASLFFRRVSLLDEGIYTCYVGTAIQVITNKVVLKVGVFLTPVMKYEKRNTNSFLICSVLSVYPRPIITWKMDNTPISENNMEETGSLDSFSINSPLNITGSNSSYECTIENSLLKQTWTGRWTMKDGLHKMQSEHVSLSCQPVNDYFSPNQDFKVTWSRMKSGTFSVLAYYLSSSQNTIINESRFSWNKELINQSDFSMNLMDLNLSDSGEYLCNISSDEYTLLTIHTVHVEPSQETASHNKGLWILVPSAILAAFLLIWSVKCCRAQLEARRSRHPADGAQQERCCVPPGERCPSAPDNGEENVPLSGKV

[2] = target: T1, human HHLA2 on cells (K562-hHHLA2; …); experiment: cell-based or functional assay
[3] = target: T2, human HHLA2 proteins (Acro Biosystems, B77-H52H5) (human, UniProt Q9UM44 23-344); experiment: ELISA, human HHLA2 protein coated
T2 construct: Bought recombinant protein coated on the ELISA plate; also called B7-H7; B7y
T2 sequence (looked up): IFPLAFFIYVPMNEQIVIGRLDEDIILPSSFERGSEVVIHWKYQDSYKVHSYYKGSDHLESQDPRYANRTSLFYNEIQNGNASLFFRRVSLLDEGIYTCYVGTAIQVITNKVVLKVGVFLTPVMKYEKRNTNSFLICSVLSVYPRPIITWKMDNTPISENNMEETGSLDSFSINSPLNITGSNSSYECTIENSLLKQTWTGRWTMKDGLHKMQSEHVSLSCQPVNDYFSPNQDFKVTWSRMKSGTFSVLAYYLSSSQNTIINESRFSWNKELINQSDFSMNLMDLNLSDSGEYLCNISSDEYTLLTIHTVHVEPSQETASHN

[4] = target: T1, human HHLA2 on cells (K562-hHHLA2; …); experiment: flow cytometry on K562-hHHLA2 cells

B1: positive control antibody 2C4 (antibody, V domains shown)
VH: EVHLQQSGPELEKPGVSVKISCKASGFSFTDYNMNWVKQSSGKSLEWIGNIDPYYGRINYNQKFKGKATLSVDKSSSTAYMHLKSLTSEDSAVYYCATGAYTSGYSWFAYWGQGTLVTVSS
VL: ENVLTQSPGIMAASLGEKVTMTCSASSSVSSSYLHWYQQRSGASPKPLIHRTSNLASGVPARFSGSGSGTSYSLTISSVEAEDDATYYCQQWSGYPFTFGSGTKLEIK
notes: also called positive control 2C4; positive antibody
B1 was tested, and the EC50 [1] was 0.281 nM and the “EC50 (nM), promoting the killing effects of NK92MI on target cells (K562 overexpressing human HHLA2)” value [2] was 0.192 nM.

B2: Ab01-63M2 (antibody, V domains shown)
VH: DVQLQESGGGLVQPGGSLRLSCAASGFTLDYYVIGWFRQAPGKEREGVSCISSSDGSTYSADSVKGRFTISRDNAENTVYLQMNSLKPEDTAVYYCAARRSPGIEGWCALPFFFGSWGQGTQVTVSS
notes: also called candidate parental antibody Ab01-63M2
For B2, the EC50 [1] was 0.043 nM and the “EC50 (nM), promoting the killing effects of NK92MI on target cells (K562 overexpressing human HHLA2)” value [2] was 0.125 nM.

B3: Ab01-63Ghm25 (antibody, V domains shown)
VH: EVQLLESGGGLVQPGGSLRLSCAASGFTLDYYVIGWFRQAPGKEREGVSCISSSTGSTYSADSVKGRFTISRDTSKNTVYLQMNSLRAEDTAVYYCAARRSPGIEGWCALPFFFGSWGQGTLVTVSS
notes: Humanized or engineered mutant of Ab01-63G4; also called mutant Ab01-63Ghm25
B3: binds [3].

B4: Ab01-63Ghm26 (antibody, V domains shown)
VH: EVQLLESGGGLVQPGGSLRLSCAASGFTLDYYVIGWFRQAPGKEREGVSCISSSTGSTYSAQSVKGRFTISRDTSKNTVYLQMNSLRAEDTAVYYCAARRSPGIEGWCALPFFFGSWGQGTLVTVSS
notes: Humanized or engineered mutant of Ab01-63G4; also called mutant Ab01-63Ghm26
B4: binds [3].

B5: Ab01-63Ghm28 (antibody, V domains shown)
VH: EVQLLESGGGLVQPGGSLRLSCAASGFTLDYYVIGWFRQAPGKEREGVSCISSSTGSTYSADSVKGRFTISRDTSKNTVYLQMNSLRAEDTAVYYCAARRSPGIEGWCALPEFFGSWGQGTLVTVSS
notes: Humanized or engineered mutant of Ab01-63G4; also called mutant Ab01-63Ghm28
B5: binds [3].

B6: Ab01-7M2 (antibody, V domains shown)
VH: DVQLQESGGGLVQPGGSLRLSCAASGFTFSSTPMYWYRQAPGKERDFVAIMAPGGYEDIADSVRGRFSISRDNGNNTMYLQMNSLKPEDTALYYCRALNSWGQGTQVTVSS
B6: binds [4]; binds [3].

B7: Ab01-84M2 (antibody, V domains shown)
VH: DVQLQESGGGLVQAGGSLRLSCAASGFPFDDYSIGWFRQAPGKAREGISCISSTHGTTYYTDSVKDRFTITRDNAKNTVYLQMNNLKPEDAAVYYCAAGLDGLACHRRDSGSRYRTQLYDYWGQGTQVTVSS
B7: binds [4]; binds [3].

B8: Ab01-91M2 (antibody, V domains shown)
VH: DVQLQESGGGLVQPGGSLRLSCAASGFTFSNYLMGWYRQAPGKERELVAAINSAGYSTVYAESVKGRFTTSRDNAKSMVYLQMNSLKAEDTAVYYCNARYDRWHDYWGQGTQVTVSS
B8: binds [4]; binds [3].

B9: Ab01-121M1 (antibody, V domains shown)
VH: DVQLQESGGGLVQPGGSLRLSCAASGSRFSFNVMGWHRQAPGKQRELVALISSGGTANYADSVKGRFTISRDNAGNTMYLQMNTLKPEDTAVYYCTATTPVGQYWGQGTQVTVSS
B9: binds [4]; binds [3].

B10: Ab01-122M1 (antibody, V domains shown)
VH: DVQLQESGGGLVQPGGSLKLSCTASRRIFTFTAAGWYRQAPGQQREFVAVIANGGHTNYADSVKGRFTISRDNAKNTVYLQMNSLKPEDTAVYYCNTPPAFGSWGPGTQVTVSS
B10: binds [4]; binds [3].

B11: Ab01-126M1 (antibody, V domains shown)
VH: DVQLQESGGGLVQPGGSLRLSCTASTRIFTFSAAGWYRQAPGKQREFVAVITGGGHTNYADSVKGRFTISRDNAKDTVYLQMNSLKPEDTAVYYCNTPPAFGSWGPGTQVTVSS
B11: binds [4]; binds [3].

B12: Ab01-110M1 (antibody, V domains shown)
VH: DVQLQESGGGLVQTGGSLRLSCAAPGFTLDDYAIGWFRQAPGKERERISCITSSTNRTYYANSVKGRFTISRDSAKNTVYLQMNSLKPEDTAVYYCAAEPILCVLWSAGGAMDYWGKGTQVTVSS
B12: binds [4]; binds [3].
